{"source": "patent US20060127409A1", "about": "(published 2006)", "binders": {"B1": {"name": "CMLA2 native (p210-b3a2) (peptide)", "peptide": "SSKALQRPV", "notes": "Synthetic 9-mer"}, "B2": {"name": "p210Cn native (p210-b3a2) (peptide)", "peptide": "KALQRPVAS"}, "B3": {"name": "b2a2 A3 (analogue) (peptide)", "peptide": "YLINKEEAL", "notes": "Synthetic analogue of b2a2A; also called YLINKEEAL"}, "B4": {"name": "b2a2 A4 (analogue) (peptide)", "peptide": "YLINKEEAV", "notes": "Synthetic analogue of b2a2A"}, "B5": {"name": "b2a2 A5 (analogue) (peptide)", "peptide": "YLINKVEAL", "notes": "Synthetic analogue of b2a2A; also called YLINKVEAL"}}, "key": {"[1]": {"target": "T1, HLA-A0201 molecule on T2 cells (TAP-, HLA-A0201+) (human)", "T1 construct": "Empty, thermolabile HLA-A0201 on TAP-deficient T2 cells, stabilised by added peptide; surface level read with mAb BB7.2; also called HLA-A2.1; HLA-A2", "experiment": "refers to the T2 assay", "description": "(§1) T2 cells (TAP-, HLA-A0201⁺) were incubated overnight at 37° C. at a concentration of 1×10⁶ cells/ml in FCS-free RPMI medium supplemented with 5 μg/ml human β₂m (Sigma, St Louis, Mo.) in the absence (negative control) or presence of either a positive reference tyrosinase peptide or test peptides at various final concentrations (50, 10, 1, and 0.1 micrograms (μg)/ml). Following a 4-hour incubation with 5 μg/ml brefeldin A (Sigma), T2 cells were labeled for 30 minutes at 4° C. with a saturating concentration of anti-HLA-A2.1 (BB7.2) mAb, then washed twice. Cells were then incubated for 30 minutes, 4° C. with a saturating concentration of FITC-conjugated goat IgG F(ab′)2 anti-mouse Ig (Caltag, San Francisco, Calif.), washed twice, fixed in PBS/1% paraformaldehyde and analyzed using a FACS Calibur® cytofluorometer (Becton Dickinson, Immunocytometry Systems, San Jose, Calif.)\n(§2) The mean intensity of fluorescence (MIF) observed for each peptide concentration (after dividing by the MIF in the absence of peptide) was used as an indication of peptide binding and expressed as a “fluorescence index.” Stabilization assays were performed similarly. Following initial evaluation of peptide binding at time 0, cells were washed in RPMI complete medium to remove free peptides and incubated in the continuous presence of 0.5 μg/ml brefeldin-A for 2, 4, 6 or 8 hours."}, "[2]": {"target": "T1, HLA-A0201 molecule on T2 cells (TAP-, …)", "experiment": "T2 binding and stabilization assay, flow cytometry with BB7.2", "description": "as §1, §2"}}, "data": [{"binder": "B1", "values": [{"measurement": "binding result", "setting": "[1]", "value": "binds"}]}, {"binder": "B2", "values": [{"measurement": "binding result", "setting": "[2]", "value": "binds"}]}, {"binder": "B3", "values": [{"measurement": "binding result", "setting": "[2]", "value": "binds"}]}, {"binder": "B4", "values": [{"measurement": "binding result", "setting": "[2]", "value": "binds"}]}, {"binder": "B5", "values": [{"measurement": "binding result", "setting": "[2]", "value": "binds"}]}]}
